B1: ANKRD9 (parent)
chain: VGAAGSARQELLGDRPRWQRLLGE

Variants of: B1
Test: protein stability index of a GFP-peptide fusion (GPS, HEK-293T) (PSI 1-6); higher = more stable
Conditions: c terminus: a fixed tail appended
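Note: lentivirally expressed fusions sorted by FACS into six bins by GFP to DsRed ratio, PSI derived from sequencing read proportions per bin multiplied by bin number.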

Variant | protein stability index
VGAAGSARQELLGDRPRWQHLLGE [R20H] | 2.52
VGAAGSARQELLGDRPRWQGLLGE [R20G] | 2.74
VGAAGSARQELLGDRPRWQQLLGE [R20Q] | 2.68
VGAAGSARQELLGDRPRWQVLLGE [R20V] | 2.81
VGAAGSARQELLGDRPRWQELLGE [R20E] | 2.18
VGAAGSARQELLGDRPRWQCLLGE [R20C] | 2.71
VGAAGSARQELLGDRKRWQRLLGE [P16K] | 3.68
VGAAGSARQELLGDRGRWQRLLGE [P16G] | 2.98
VGAAGSARQELLGDRSRWQRLLGE [P16S] | 3.16
VGAAGSARQELLGDRMRWQRLLGE [P16M] | 2.94
VGAAGSARQELLGDRVRWQRLLGE [P16V] | 3.35
VGAAGSARQELLGDRDRWQRLLGE [P16D] | 3.1
VGAAGSARQELLGDRCRWQRLLGE [P16C] | 3.24
VGAAGSARQELLGDRNRWQRLLGE [P16N] | 3.88
VGAAGSARQELLGDRYRWQRLLGE [P16Y] | 3.28
VGAAGSARQELLGDRLRWQRLLGE [P16L] | 3.12
VGAAGSARQELLGDRWRWQRLLGE [P16W] | 1.84
VGAAGSARQELLGDRRRWQRLLGE [P16R] | 3.31
VGAAGSARQELLGDRHRWQRLLGE [P16H] | 2.83
VGAAGSARQELLGDRQRWQRLLGE [P16Q] | 2.65
VGAAGSARQELLGDRERWQRLLGE [P16E] | 4.72
VGAAGSARQELLGDRIRWQRLLGE [P16I] | 2.92
VGAAGSARQELLGDRARWQRLLGE [P16A] | 3.68
VGAAGSARQELLGDRPDWQRLLGE [R17D] | 3.41

Variant | protein stability index
VGAAGSARQELLGDRPIWQRLLGE [R17I] | 2.83
VGAAGSARQELLGDRPHWQRLLGE [R17H] | 4.01
VGAAGSARQELLGDRPLWQRLLGE [R17L] | 2.73
VGAAGSARQELLGDRPMWQRLLGE [R17M] | 2.72
VGAAGSARQELLGDRPQWQRLLGE [R17Q] | 3.47
VGAAGSARQELLGDRPVWQRLLGE [R17V] | 3
VGAAGSARQELLGDRPAWQRLLGE [R17A] | 3.33
VGAAGSARQELLGDRPEWQRLLGE [R17E] | 3.81
VGAAGSARQELLGDRPYWQRLLGE [R17Y] | 2.37
VGAAGSARQELLGDRPSWQRLLGE [R17S] | 4.09
VGAAGSARQELLGDRPWWQRLLGE [R17W] | 2.61
VGAAGSARQELLGDRPKWQRLLGE [R17K] | 3.53
VGAAGSARQELLGDRPGWQRLLGE [R17G] | 3.5
VGAAGSARQELLGDRPPWQRLLGE [R17P] | 4.29
VGAAGSARQELLGDRPNWQRLLGE [R17N] | 3.29
VGAAGSARQELLGDRPFWQRLLGE [R17F] | 1.94
VGAAGSARQELLGDRPTWQRLLGE [R17T] | 3.43
VGAAGSARQELLSDRPRWQRLLGE [G13S] | 2.72
VGAAGSARQELLWDRPRWQRLLGE [G13W] | 1.9
VGAAGSARQELLIDRPRWQRLLGE [G13I] | 2.86
VGAAGSARQELLMDRPRWQRLLGE [G13M] | 3.02
VGAAGSARQELLVDRPRWQRLLGE [G13V] | 2.63
VGAAGSARQELLRDRPRWQRLLGE [G13R] | 2.81
VGAAGSARQELLYDRPRWQRLLGE [G13Y] | 2.77

Variant | protein stability index
VGAAGSARQELLCDRPRWQRLLGE [G13C] | 2.77
VGAAGSARQELLKDRPRWQRLLGE [G13K] | 3.39
VGAAGSARQELLHDRPRWQRLLGE [G13H] | 3.46
VGAAGSARQELLADRPRWQRLLGE [G13A] | 3.9
VGAAGSARQELLLDRPRWQRLLGE [G13L] | 2.66
VGAAGSARQELLPDRPRWQRLLGE [G13P] | 3.7
VGAAGSARQELLQDRPRWQRLLGE [G13Q] | 2.76
VGAAGSARQELLTDRPRWQRLLGE [G13T] | 2.97
VGAAGSARQELLEDRPRWQRLLGE [G13E] | 3.92
VGAAGSARQELLDDRPRWQRLLGE [G13D] | 2.73
VGAAGSARQELLNDRPRWQRLLGE [G13N] | 3.55
VGAAGSARQELLGDRPRHQRLLGE [W18H] | 4.14
VGAAGSARQELLGDRPRKQRLLGE [W18K] | 4.64
VGAAGSARQELLGDRPRRQRLLGE [W18R] | 4.93
VGAAGSARQELLGDRPRMQRLLGE [W18M] | 3.57
VGAAGSARQELLGDRPRQQRLLGE [W18Q] | 4.1
VGAAGSARQELLGDRPRFQRLLGE [W18F] | 3.54
VGAAGSARQELLGDRPRGQRLLGE [W18G] | 5.32
VGAAGSARQELLGDRPRTQRLLGE [W18T] | 4.63
VGAAGSARQELLGDRPRPQRLLGE [W18P] | 4.98
VGAAGSARQELLGDRPRSQRLLGE [W18S] | 4.2
VGAAGSARQELLGDRPRYQRLLGE [W18Y] | 3.78
VGAAGSARQELLGDRPRNQRLLGE [W18N] | 4.11
VGAAGSARQELLGDRPREQRLLGE [W18E] | 4.45

Variant | protein stability index
VGAAGSARQELLGDRPRLQRLLGE [W18L] | 4.36
VGAAGSARQELLGDRPRDQRLLGE [W18D] | 4.63
VGAAGSARQELLGDRPRAQRLLGE [W18A] | 4.38
VGAAGSARQELLGDRPRVQRLLGE [W18V] | 4.4
VGAAGSARQELLGDRPRWQRDLGE [L21D] | 4.72
VGAAGSARQELLGDRPRWQRNLGE [L21N] | 3.71
VGAAGSARQELLGDRPRWQRVLGE [L21V] | 3.67
VGAAGSARQELLGDRPRWQRCLGE [L21C] | 3.75
VGAAGSARQELLGDRPRWQRILGE [L21I] | 2.93
VGAAGSARQELLGDRPRWQRELGE [L21E] | 4.67
VGAAGSARQELLGDRPRWQRSLGE [L21S] | 4.52
VGAAGSARQELLGDRPRWQRKLGE [L21K] | 4
VGAAGSARQELLGDRPRWQRYLGE [L21Y] | 2.28
VGAAGSARQELLGDRPRWQRMLGE [L21M] | 3.03
VGAAGSARQELLGDRPRWQRRLGE [L21R] | 3.11
VGAAGSARQELLGDRPRWQRGLGE [L21G] | 2.93
VGAAGSARQELLGDRPRWQRFLGE [L21F] | 2.68
VGAAGSARQELLGDRPRWQRTLGE [L21T] | 3.13
VGAAGSARQELLGDRPRWQRWLGE [L21W] | 3.23
VGAAGSARQELLGDRPRWQRALGE [L21A] | 3.28
VGAAGSARQELLGDRPRWQRQLGE [L21Q] | 3.32
VGAAGSARQELLGDRPRWQRHLGE [L21H] | 2.86

— the supplement of paper PMC10567573
